According to US12116698:
Where no end group is shown, it is not given here. [ ]: non-standard residue; d: D form. fluorescent label = not defined here; Dap = NC[C@H](N)C(=O)O; Cm = not defined here

Legend:
[1] = target: T1, sortase A (SrtA) (S. aureus), Q2FV99; assay: fluorescence polarization (anisotropy), SrtA titrated into peptide solution
T1 chain: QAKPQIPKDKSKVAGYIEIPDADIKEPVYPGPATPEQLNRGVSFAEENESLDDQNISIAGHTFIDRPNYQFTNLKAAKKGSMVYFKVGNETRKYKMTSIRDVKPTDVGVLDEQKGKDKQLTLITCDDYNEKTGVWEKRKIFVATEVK

[2] = target: T1, sortase A (SrtA) (S. aureus), Q2FV99; assay: mean fluorescence intensity of SrtA-coated beads against peptide concentration, curve fit
Streptavidin, P22629 = assay: fluorescence intensity of streptavidin-coated beads at varied peptide concentrations, hyperbola fit
Chain of Streptavidin, P22629 (P22629 37-163 limits assumed): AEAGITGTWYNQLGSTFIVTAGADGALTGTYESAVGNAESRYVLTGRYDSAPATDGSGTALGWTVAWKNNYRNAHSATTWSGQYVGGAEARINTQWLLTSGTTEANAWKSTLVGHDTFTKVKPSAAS

B1: W2 (peptide)
peptide: ACLNSSQPSCGGG[Dap](fluorescent label)
modifications: not fully specified (residues 2, 10); cysteine pairing not given here; reading uncertain; also: Cm code not defined, fluorescent label not named
Q: Which Kd [1] does the source give for B1 here?
A: Its Kd is 12 µM.

Q: What about the Kd [2] of the same binder?
A: The Kd was 14 µM.

Q: For A[Cm]TPRSANY[Cm]GGG[Dap](fluorescent label) (not fully specified; reading uncertain; also: fluorescent label not named) [SA1], which Kd (Streptavidin, P22629) is on record?
A: The Kd was 6 µM.

B2: W1 (peptide)
peptide: ACHPVSGQKCGGG[Dap](fluorescent label)
modifications: not fully specified (residues 2, 10); cysteine pairing not given here; reading uncertain; also: Cm code not defined, fluorescent label not named
Q: How did the Kd [2] turn out when B2 was run?
A: Its Kd is 14 µM.

Q: Which Kd (Streptavidin, P22629) does the source give for A[Cm]DGRPDRA[Cm]GGG[Dap](fluorescent label) (not fully specified; reading uncertain; also: fluorescent label not named) [SA2] here?
A: Its Kd is 9 µM.
